Reference: US20240279288A1, “APPLICATION OF PLANT JAZ PROTEINS AND DERIVED POLYPEPTIDES IN PREVENTION AND TREATMENT OF HUMAN AND ANIMAL TUMORS” (ANYANG INSTITUTE OF SINO-COTTON INDUSTRY INNOVATION, priority 2021, published 2024)

B1: GhJAZ1: cotton JAZ1 protein, gene number Gh_A05G0260, sequence SEQ ID No. 4; prokaryotically expressed with His tag, about 30 KD (protein)
chain: MSSCSESTAMKPARSPEKPSFAQTCNLLSQYLKEKGSFGDLSLGMTCNVEANGTPVVPPPTMNLFPLNDKSDDVCGRNGGNPKNLTSMDLFPQQAGLASKDDSPNKLEPQTAPMTIFYGGQVIVFNDFPANKAKEIMLLASNSSSQSNNSFNPIPFTSSIARSPIESSIGVPPTSKPVHPAQRAVPGDLPIARRASLHRFLEKRKDRITAKAPYQINNSAAAPSLSGDNKSWLGLAAQSP
modifications: His tag
notes: prokaryotically expressed with His tag, about 30 KD
B2: GhJAZ1 after deletion of NT domain: GhJAZ1 mutant with NT domain deleted, protein sequence SEQ ID No. 83 (protein)
chain: MSSCSESTAMKPARSPEANGTPVVPPPTMNLFPLNDKSDDVCGRNGGNPKNLTSMDLFPQQAGLASKDDSPNKLEPQTAPMTIFYGGQVIVFNDFPANKAKEIMLLASNSSSQSNNSFNPIPFTSSIARSPIESSIGVPPTSKPVHPAQRAVPGDLPIARRASLHRFLEKRKDRITAKAPYQINNSAAAPSLSGDNKSWLGLAAQSP

Molecular target: uPAR (Homo sapiens, UniProt Q03405)
Sequence (Q03405 23-305): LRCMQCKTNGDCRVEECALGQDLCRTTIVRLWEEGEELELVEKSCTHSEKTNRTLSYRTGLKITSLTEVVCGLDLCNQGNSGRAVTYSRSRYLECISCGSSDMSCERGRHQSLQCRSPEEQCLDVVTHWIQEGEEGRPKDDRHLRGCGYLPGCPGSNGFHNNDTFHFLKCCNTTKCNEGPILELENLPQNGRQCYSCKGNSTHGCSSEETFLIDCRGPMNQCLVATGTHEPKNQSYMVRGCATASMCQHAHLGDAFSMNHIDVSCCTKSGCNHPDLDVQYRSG
Test: Yeast two hybrid with uPAR
Format: binding
Design: the CDS of the above genes was subcloned to pGADT7 (YouBio, VT1639); expressed in transfected cells; host or cells: yeast Y2HGold
Source text: […]
In order to explore how GhJAZ1 enters cancer cells, we cloned the genes of most tumor surface receptors, including uPAR (NCBI database accession number of NM_002659.4), CCK1R (NP_000721.1), CCK2R (NP_001350481.1), HER2 (NP_004439.2), GRPR (NP_005305.1), MUC1 (NP_001358649.1), VEGFR1 (NP_002010.2), Insulin receptor (NM_000208.4), NTR (XM_011528827.2), PSMA (XM_017017432.1), TFR1 (NM_001128148.3), TFR2 (NM_003227.4), PEPT1 (NM_005073.4), APN (NM_001150.3). […] We detected the interaction of GhJAZ1 with uPA (as the ligand of uPAR, NCBI database accession number of NP_002649.2) and uPAR by yeast two hybrid (the steps of the experiment as Example 3). […]

Molecule | interaction with uPAR
B1 | interacted
B2 | significantly weakened
